# Substitutions are numbered along the chain they refer to.
# T1: human IL-22 (human, UniProt Q9GZX6 34-179)
# T1 sequence: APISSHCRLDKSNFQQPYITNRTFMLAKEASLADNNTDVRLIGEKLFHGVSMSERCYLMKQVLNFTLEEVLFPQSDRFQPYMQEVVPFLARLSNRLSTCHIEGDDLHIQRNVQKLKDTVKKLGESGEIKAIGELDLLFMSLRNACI
# T2: murine IL-22 (murine, UniProt Q9JJY9 34-179)
# T2 sequence: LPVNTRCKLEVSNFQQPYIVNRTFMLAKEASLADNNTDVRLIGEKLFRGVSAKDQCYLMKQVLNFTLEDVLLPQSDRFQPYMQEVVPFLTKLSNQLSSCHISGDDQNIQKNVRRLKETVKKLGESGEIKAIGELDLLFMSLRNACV
# T3: rat IL-22 (rat, UniProt G3V6X6 34-178)
# T3 sequence: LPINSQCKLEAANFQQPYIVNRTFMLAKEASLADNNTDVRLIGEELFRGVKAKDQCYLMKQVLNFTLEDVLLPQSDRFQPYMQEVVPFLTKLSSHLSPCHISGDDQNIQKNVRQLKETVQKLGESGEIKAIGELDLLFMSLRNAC
# T4: IL-26 (human, UniProt Q9NPH9)
# T4 construct: also called human IL-26
# T4 sequence (cytokine, looked up): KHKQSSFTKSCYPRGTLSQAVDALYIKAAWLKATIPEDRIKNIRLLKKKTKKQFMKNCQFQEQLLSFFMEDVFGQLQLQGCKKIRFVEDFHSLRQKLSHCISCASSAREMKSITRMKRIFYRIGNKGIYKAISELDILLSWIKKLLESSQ
# B1: 356A11 human monoclonal anti-IL-22 antibody (Examples 10, 11, 14, 15) (antibody, V domains shown)
# VH: QVQLVQSGAEVKKPGASVKVSCKASGYTFTNYYMHWVRQAPGQGLEWVGWINPYTGSAFYAQKFRGRVTMTRDTSISTAYMELSRLRSDDTAVYYCAREPEKFDSDDSDVWGRGTLVTVSS
# VL: QAVLTQPPSVSGAPGQRVTISCTGSSSNIGAGYGVHWYQQLPGTAPKLLIYGDSNRPSGVPDRFSGSKSGTSASLAITGLQAEDEADYYCQSYDNSLSGYVFGGGTQLTVLG
# B2: 367D04 IgG (non-germlined) (antibody, V domains shown)
# VH: EVQLVESGGGVVRPGGSLRLSCAASGFTFDDYGMNWVRQAPGKGLEWVSGVNWNGGTRDYAASVKGRFTISRDNAKNSLYLQMNSLRAEDTALYYCARGWYSGSPWSLGHWGRGTLVTVSS
# VL: QAVLTQPSSVSGSPGQSVTISCTGASGDVGAYNFVSWYQQHPGKTPKLIIYDVNKRPSGVSNRFSGSKSGNTASLTISRLQAEDESDYYCSSYTSRYTTEFGGGTKVTVLG
# notes: IgG
# B3: 368D04 IgG (non-germlined) (antibody, V domains shown)
# VH: B2 VH with S104A, P105A, S107N, L108M, H110Y
# VL: B2 VL with V18I, R79G, S91A, Y93L, T94V, R96D, Y97F, T98S, T99V, E100V
# B4: 097D09 IgG (non-germlined) (antibody, V domains shown)
# VH: EVQLVESGGGLVTPGGSLRLSCAASGFTFSDYYMSWVRQAPGRGLEWVSAISGSGGSTYYADSVKGRITISRDNAKNSLYLQMSSLRSEDTAVYYCARGLWVWDPLDYWGRGTLVTVSS
# VL: DIQMTQSPSTLSASIGDRVTITCRASEGIYHWLAWYQQKPGKAPKLLIYKASSLASGAPSRFSGSGFGTDFTLTISSLQPDDFATYYCQQYSEFAWTFGGGTKLEIKR
# notes: IgG
# B5: 355B06 IgG (germlined) (antibody, V domains shown)
# VH: B1 VH with N31D, D104G, S105E, D106S, D107S, S108G, D109Q, V110L
# VL: B1 VL with N95S, S96G
# B6: 356A11 IgG (germlined; Tables 6 and 9) (antibody, V domains shown)
# VH: B1 VH
# VL: B1 VL
# B7: 355E04 IgG (germlined) (antibody, V domains shown)
# VH: B1 VH with N31H, S57G, R65Q, D106P, D107N, S108A, D109E, V110I
# VL: B1 VL with D53N, N95S
# B8: 354A08 IgG (germlined) (antibody, V domains shown)
# VH: B1 VH with N31D, S57G, K102R, D104G, S105D, D106S, D107T, S108G, D109Q
# VL: B1 VL with D53N, Q91Y, S92H, Y93W, N95K, S96E, L97Q
# notes: isotype of this preparation not restated
# B9: 375G06 IgG (non-germlined) (antibody, V domains shown)
# VH: EVQLVQSGAEVKKPGASVKVSCQASGYTFSDYYIHWVRQTPGQGFEWMGWVNPDTGGTRYAQKFQGWVTMTRDMSNTTAYMELPRLRDDDTAVYYCARDLTGYDYYDRWGQGTLVTVSS
# VL: QSVLTQPPSMSVAPGKTATITCGGNNFRNKRVHWYQQRPGQAPVLVIYYDSDRPSGIPERFSGSRSGNTATLTISRVEAGDEADFYCQVWDFLADEAMFGGGTKLTVL
# notes: IgG
# B10: 376B10 IgG (non-germlined) (antibody, V domains shown)
# VH: B9 VH with R85G, Y105Q, D107T, R108A
# VL: QSVLTQPPSVSVAPGKTATITCGGNNFRNKRVHWYQQRPGQAPVLVIYYDSDRPSGIPERFSGSRSGNTATLTISRVEAGDEADFYCSTFDPFTDRPLFGGGTKLTVLG
# notes: IgG
# B11: 166G05 IgG (germlined) (antibody, V domains shown)
# VH: QVQLVQSGAEVKKPGASVKVSCKASGYTFSDYYIHWVRQAPGQGLEWMGWVNPDTGGTRYAQKFQGRVTMTRDMSISTAYMELSRLRSDDTAVYYCARDLTGFDPFDIWGQGTLVTVSS
# VL: SSVLTQPPSVSVAPGKTARITCGGNNFRNKRVHWYQQKPGQAPVLVIYYDSDRPSGIPERFSGSRSGNTATLTISRVEAGDEADYYCQVWDFLTDSGSFGGGTKLTVLG
# B12: 062G05 IgG (non-germlined) (antibody, V domains shown)
# VH: QVQLVESGAEVKKPGASVKVSCKASGYTFTSYGISWVRQAPGQGLEWMGWISAYTGNTNYAQKFQGRVTMTTDTSTSTAYMELRSLRSDDTAVYYCARDRGYYDAFDIWGQGTLVTVSS
# VL: B4 VL with Y91M, S92G, F94W, A95K, W96A, T97A
# notes: IgG
# Target: T1, human IL-22
# Assay: cell-based or functional assay
row,IC50 (pM) in BaF3 cell based assay [pM],Binder
1,3.57,B1

# Target: monkey IL-22 (monkey)
# Assay: cell-based or functional assay
row,IC50 (pM) in BaF3 cell based assay [pM],Binder
1,2.58,B1

# Target: T2, murine IL-22
# Assay: cell-based or functional assay
row,IC50 (pM) in BaF3 cell based assay [pM],Binder
1,2.53,B1

# Target: T3, rat IL-22
# Assay: cell-based or functional assay
row,IC50 (pM) in BaF3 cell based assay [pM],Binder
1,10.7,B1

# Target: T4, IL-26
# Assay: ELISA: plate coated with 1 µg/ml antigen, IgG added at 1 µg/ml, HRP goat anti-human IgG, A450
# Method: (§1) Cross species reactivity of germlined and non-germlined optimized antibodies were determined as follows: ELISA plates (Costar, Cat. #3590) were coated overnight with 1 μg/ml of rat, mouse, or human IL-22 or human IL-26 in PBS buffer. Plates were washed with PBST buffer (0.05% Tween20 in PBS) 3 times, then blocked with 1% BSA (Sigma A8918)/PBST for 1 hr at RT. Antibodies were added at 1 μg/ml, incubated 1 hr at 25° C. […] The plates were incubated for 1 hour at 25° C., then washed with PBST, and developed with TMB (KPL, Cat. #50-76-04). Reaction was stopped with 0.18 M H₂SO₄ Plates were read at OD 450 nm.
row,binding result,Binder
1,no binding (tested: 1 µg/ml),B2
2,no binding (tested: 1 µg/ml),B3
3,no binding (tested: 1 µg/ml),B4
4,no binding (tested: 1 µg/ml),B5
5,no binding (tested: 1 µg/ml),B6
6,no binding (tested: 1 µg/ml),B7
7,no binding (tested: 1 µg/ml),B8
8,no binding (tested: 1 µg/ml),B9
9,no binding (tested: 1 µg/ml),B10
10,no binding (tested: 1 µg/ml),B11

# Target: T2, murine IL-22
# Assay: as above
# Method: as §1
row,binding result,Binder
1,no binding (tested: 1 µg/ml),B4

# Target: T5, BSA (bovine, UniProt P02769)
# T5 construct: also called bovine serum albumin
# Assay: ELISA: plate coated with antigen, IgG added at 1 µg/ml, HRP goat anti-human IgG, A450
# T5 sequence (P02769 25-607 limits assumed): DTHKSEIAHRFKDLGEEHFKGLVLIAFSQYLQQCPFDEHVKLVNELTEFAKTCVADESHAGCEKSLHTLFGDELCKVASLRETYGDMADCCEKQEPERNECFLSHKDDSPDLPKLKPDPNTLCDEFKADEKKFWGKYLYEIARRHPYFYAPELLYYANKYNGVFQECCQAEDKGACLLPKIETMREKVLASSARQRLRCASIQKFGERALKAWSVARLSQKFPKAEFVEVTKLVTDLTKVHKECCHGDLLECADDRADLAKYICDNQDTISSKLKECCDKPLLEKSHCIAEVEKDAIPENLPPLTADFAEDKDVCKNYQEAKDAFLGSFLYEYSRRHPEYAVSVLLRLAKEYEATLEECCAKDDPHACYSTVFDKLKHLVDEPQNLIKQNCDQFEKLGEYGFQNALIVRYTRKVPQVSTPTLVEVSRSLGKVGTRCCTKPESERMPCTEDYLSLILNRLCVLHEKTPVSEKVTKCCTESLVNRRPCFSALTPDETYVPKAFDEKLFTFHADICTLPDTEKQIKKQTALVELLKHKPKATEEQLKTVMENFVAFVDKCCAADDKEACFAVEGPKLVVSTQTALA
row,binding result,Binder
1,no binding (tested: 1 µg/ml),B5
2,no binding (tested: 1 µg/ml),B6
3,no binding (tested: 1 µg/ml),B7
4,no binding (tested: 1 µg/ml),B8
5,no binding (tested: 1 µg/ml),B11

# Target: T1, human IL-22
# Assay: cell-based or functional assay
# Remark: another data set of the same source
row,IC50 of IgG (pM) in BaF3-IL-22 proliferation assay [pM],Binder
1,126,B2
2,127,B3
3,197,B4
4,112,B12
5,92,B5
6,53,B6
7,100,B7
8,79,B8
9,100,B9
10,119,B10

# Target: T1, human IL-22
# Assay: cell-based or functional assay
# Remark: another data set of the same source
row,IC50 (pM) in GROa cell based assay (HT29 cells) [pM],Binder
1,124,B1

# Target: monkey IL-22 (monkey)
# Assay: cell-based or functional assay
# Remark: another data set of the same source
row,IC50 (pM) in GROa cell based assay (HT29 cells) [pM],Binder
1,89.6,B1

# Target: T2, murine IL-22
# Assay: cell-based or functional assay
# Remark: another data set of the same source
row,IC50 (pM) in GROa cell based assay (HT29 cells) [pM],Binder
1,144,B1

# Target: T3, rat IL-22
# Assay: cell-based or functional assay
# Remark: another data set of the same source
row,IC50 (pM) in GROa cell based assay (HT29 cells) [pM],Binder
1,211,B1

# Target: T5, BSA
# Assay: ELISA: plate coated with antigen, IgG added at 1 µg/ml, HRP goat anti-human IgG, A450
# Remark: another data set of the same source
row,binding result,Binder
1,no binding (tested: 1 µg/ml),B2
2,no binding (tested: 1 µg/ml),B3
3,no binding (tested: 1 µg/ml),B4
4,no binding (tested: 1 µg/ml),B12
5,no binding (tested: 1 µg/ml),B9
6,no binding (tested: 1 µg/ml),B10
